Source: patent publication CN102827282A (LIN HONG, dated 2012)

Biological target: T1, 重组人Trop-2蛋白 (human, UniProt P09758 27-274, limits assumed)
T1 construct: Purified recombinant protein coated on ELISA plates; also called recombinant human Trop-2 protein; 重组的Trop-2蛋白
T1 sequence (looked up): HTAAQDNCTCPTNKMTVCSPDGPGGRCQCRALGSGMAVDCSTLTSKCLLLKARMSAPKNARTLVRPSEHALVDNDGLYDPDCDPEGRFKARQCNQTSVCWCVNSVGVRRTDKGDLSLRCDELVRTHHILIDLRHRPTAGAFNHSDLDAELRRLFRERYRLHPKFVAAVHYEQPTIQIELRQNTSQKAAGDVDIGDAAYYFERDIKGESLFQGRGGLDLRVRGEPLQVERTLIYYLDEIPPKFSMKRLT
Assay: phage ELISA of single clones after five rounds of panning on recombinant human Trop-2

binding result: binds
B1: 抗Trop-2的特异性人源Fab抗体 (Fab, V domains shown)
VH: QVQLVESGGGVVQPGRSLRLSCAASGFTFSSYGMHWVRQAPGKGLEWVAVIWYDGSNKYYADSVKGRFTISRDNSKNTLYLQMNSLRAEDTAVYYCARDPGWGFDYWGQGTLVTVSS
VL: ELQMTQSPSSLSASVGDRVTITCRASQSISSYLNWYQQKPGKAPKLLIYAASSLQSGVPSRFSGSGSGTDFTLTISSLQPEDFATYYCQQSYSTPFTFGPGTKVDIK
notes: also called 抗Trop-2抗体Fab; pComb3x-Fab
